Reference: article PMC9340783, “Development of a fully human anti‐GITR antibody with potent antitumor activity using H2L2 mice” (FEBS Open Bio, 2022)
Positions count from the first letter of the chain named. Names and notes keep the numbering of the source.

T1: cynoGITR ECD hFc (Macaca fascicularis)
T1 construct: cynomolgus GITR, extracellular domain, Gln20-Glu155, NCBI XP_005545180.1; also called cynoGITR protein; cGITR; source: FreeStyle 293F, transiently transfected, purified by protein A
T1 chain: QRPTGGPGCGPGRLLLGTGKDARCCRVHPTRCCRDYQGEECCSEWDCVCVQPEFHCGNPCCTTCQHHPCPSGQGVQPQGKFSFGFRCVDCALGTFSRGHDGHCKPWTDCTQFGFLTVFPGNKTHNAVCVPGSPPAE

T2: cynoGITR on 293F‐cynoGITR cells (Macaca fascicularis)
T2 construct: also called 293F‐cGITR
T2 chain: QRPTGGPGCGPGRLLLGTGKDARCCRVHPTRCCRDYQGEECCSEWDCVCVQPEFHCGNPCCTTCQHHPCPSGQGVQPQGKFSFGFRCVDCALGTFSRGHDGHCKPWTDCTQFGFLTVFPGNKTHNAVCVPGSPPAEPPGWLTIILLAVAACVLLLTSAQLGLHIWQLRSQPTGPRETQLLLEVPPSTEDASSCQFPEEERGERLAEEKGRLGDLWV

B1: mAb019 (antibody, V domains shown)
VH: QVQLVESGGGVVQPGRSLRLSCAASGFTFSSYGMHWVRQAPGKGLEWVAVIWYAGSRKFYADSVEGRFTISRDNSKNTLYLQMSSVRPEDTAVYYCARGGSLDGGFFYYGMDVWGQGTTVTVSS
VL: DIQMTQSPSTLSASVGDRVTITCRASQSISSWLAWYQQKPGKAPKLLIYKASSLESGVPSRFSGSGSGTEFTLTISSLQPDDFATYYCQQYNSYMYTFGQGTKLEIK
notes: as the VH of m12 (hab019 was made from the variable regions of mAb019); as the VL of m12; Human-murine chimeric antibody from H2L2 mice: human variable regions, rat constant regions; source: hybridoma cell culture supernatant, purified (Protein A)
B2: hab019 (antibody, V domains shown)
VH: B1 VH
VL: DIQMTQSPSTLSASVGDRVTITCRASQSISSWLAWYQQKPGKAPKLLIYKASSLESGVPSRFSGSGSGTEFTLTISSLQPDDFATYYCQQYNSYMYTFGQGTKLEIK
notes: 3503‐hab019‐VH; 3503‐hab019‐Vk; Whole antibody, human IgG1 heavy chain constant region, human kappa light chain constant region; source: FreeStyle 293F, transiently co-transfected, purified from culture supernatant
B3: hab019e1 (antibody, V domains shown)
VH: B1 VH with S84N, V86L, P88A
VL: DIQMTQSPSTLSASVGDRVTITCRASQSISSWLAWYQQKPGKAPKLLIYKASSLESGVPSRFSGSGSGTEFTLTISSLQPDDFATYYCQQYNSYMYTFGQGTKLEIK
notes: 3503‐hab019‐VH(DG + NLA); positions not given; as the VL of m12 (3503‐hab019‐Vk); Whole antibody, human IgG1 heavy chain constant region, human kappa light chain constant region; source: FreeStyle 293F, transiently co-transfected, purified from culture supernatant
B4: hab019e3 (antibody, V domains shown)
VH: B1 VH with S84N, V86L, P88A, G104A
VL: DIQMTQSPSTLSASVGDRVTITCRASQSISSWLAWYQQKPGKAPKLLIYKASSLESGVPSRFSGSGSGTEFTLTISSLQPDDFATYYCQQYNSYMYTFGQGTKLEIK
notes: 3503‐hab019‐VH(DA + NLA); positions not given; as the VL of m12 (3503‐hab019‐Vk); Whole antibody, human IgG1 heavy chain constant region, human kappa light chain constant region; source: FreeStyle 293F, transiently co-transfected, purified from culture supernatant
B5: mAb070 (antibody, V domains shown)
VH: QVQLVESGGGVVQPGRSLRLSCAASGFTFSSYGMHWVRQAPGKGLEWVAVIWYETSNKFYVDSVKGRFTISRDNSKNTLYLQMNSLRAEDTAVYYCARYGASSGWYWYFDLWGRGTLVTVSS
VL: DIQLTQSPSFLSASVGDRVTITCRASQGISSFLAWYQQKPGKAPKLLIYAASTLQSGVPSRFSGSGSGTEFTLTISSLQPEDFATYCCQQLNSYPFTFGQGTKLEIK
notes: as the VH of m14; as the VL of m14; Human-murine chimeric antibody from H2L2 mice: human variable regions, rat constant regions; source: hybridoma cell culture supernatant, purified (Protein A)
B6: hab076e1 (antibody, V domains shown)
VH: B5 VH with F59Y, V61A
VL: B5 VL with F32Y, C87Y
notes: as the VH of m15 (3503‐hab076‐VH); 3503‐hab076‐Vk(C2Y); the substitution is against the VL of m15 (Cys in FR3 of VL); position not given; Whole antibody, human IgG1 heavy chain constant region, human kappa light chain constant region; source: FreeStyle 293F, transiently co-transfected, purified from culture supernatant
B7: mAb076 (antibody, V domains shown)
VH: B5 VH with F59Y, V61A
VL: B5 VL with F32Y
notes: as the VH of m15; as the VL of m15; Human-murine chimeric antibody from H2L2 mice: human variable regions, rat constant regions; source: hybridoma cell culture supernatant, purified (Protein A)
B8: hab076 (antibody, V domains shown)
VH: B5 VH with F59Y, V61A
VL: B5 VL with F32Y
notes: 3503‐hab076‐VH; 3503‐hab076‐Vk; Whole antibody, human IgG1 heavy chain constant region, human kappa light chain constant region; source: FreeStyle 293F, transiently co-transfected, purified from culture supernatant
B9: hab064e1 (antibody, V domains shown)
VH: B5 VH with F59Y, V61A, A101G, S102N
VL: B5 VL with C87Y
notes: 3503‐hab064‐VH(N2S); the substitution is against the VH of m13; position not given; 3503‐hab064‐Vk(T2K/C2Y); the substitutions are against the VL of m13; positions not given; Whole antibody, human IgG1 heavy chain constant region, human kappa light chain constant region; source: FreeStyle 293F, transiently co-transfected, purified from culture supernatant
B10: mAb064 (antibody, V domains shown)
VH: B5 VH with F59Y, V61A, S85N, A101G, S102N
VL: B5 VL with K42T
notes: as the VH of m13; as the VL of m13; Human-murine chimeric antibody from H2L2 mice: human variable regions, rat constant regions; source: hybridoma cell culture supernatant, purified (Protein A)
B11: hab070 (antibody, V domains shown)
VH: B5 VH
VL: B5 VL
notes: 3503‐hab070‐VH; 3503‐hab070‐Vk; Whole antibody, human IgG1 heavy chain constant region, human kappa light chain constant region; source: FreeStyle 293F, transiently co-transfected, purified from culture supernatant
B12: hab064 (antibody, V domains shown)
VH: B5 VH with F59Y, V61A, S85N, A101G, S102N
VL: B5 VL with K42T
notes: 3503‐hab064‐VH; 3503‐hab064‐Vk; Whole antibody, human IgG1 heavy chain constant region, human kappa light chain constant region; source: FreeStyle 293F, transiently co-transfected, purified from culture supernatant

Biological target: T1, cynoGITR ECD hFc
Assay: ELISA; indirect ELISA; antigen hFc fusion protein coated on 96-well plates (1 μg·mL^−1 overnight at 4 °C in Fig. 3B), antibody added, detected with anti-rat IgG/hIgG-peroxidase antibody
Conditions: both partners purified

EC50 | Binder
7 pM | B1
92 pM | B2
79 pM | B3
89 pM | B4
25 pM | B5
94 pM | B6
12 pM | B7
101 pM | B8
96 pM | B9
35 pM | B10
106 pM | B11
108 pM | B12

These binders were tested against T3, hGITR ECD hFc (Homo sapiens (Human)., UniProt Q9Y5U5, Thr45Ala) in the same assay as above. Conditions: both partners purified.
T3 construct: human GITR (glucocorticoid-induced TNF receptor-related), extracellular domain, Gln26-Glu161 with Thr45Ala, UniProt Q9Y5U5.1; also called human GITR protein; source: FreeStyle 293F, transiently transfected, purified by protein A

EC50 | Binder
8 pM | B1
103 pM | B2
82 pM | B3
98 pM | B4
22 pM | B5
87 pM | B6
10 pM | B7
91 pM | B8
93 pM | B9
38 pM | B10
99 pM | B11
106 pM | B12

These binders were tested against T3, hGITR ECD hFc (assay: SPR; Biacore T200; hGITR ECD hFc immobilised on a Series S CM5 chip; antibody 0, 3.125, 6.25, 12.5, 25 and 50 nM; association 180 s, dissociation 600 s). Conditions: both partners purified.

Kd | Binder
401 pM | B2
1030 pM | B8
251 pM | B11
592 pM | B12

These binders were tested against T4, human GITR on 293F‐hGITR cells (Homo sapiens (Human)., UniProt Q9Y5U5-1) (assay: cell-based or functional assay). Conditions: not given.
T4 sequence (Q9Y5U5 26-241): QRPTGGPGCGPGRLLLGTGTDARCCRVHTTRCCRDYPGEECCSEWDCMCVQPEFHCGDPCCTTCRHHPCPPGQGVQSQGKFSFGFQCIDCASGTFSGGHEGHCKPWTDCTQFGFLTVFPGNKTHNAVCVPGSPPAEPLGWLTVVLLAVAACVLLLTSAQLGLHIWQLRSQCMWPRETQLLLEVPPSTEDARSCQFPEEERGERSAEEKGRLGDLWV

NF‐ĸB luciferase reporter assay, Crosslinking, EC50 | NF‐ĸB luciferase reporter assay, Crosslinking, Top ratio | NF‐ĸB luciferase reporter assay, No crosslinking, Top ratio | NF‐ĸB luciferase reporter assay, No crosslinking, EC50 | Binder
12500 pM | 11 fold | 20 fold |  | B1
8660 pM | 13 fold | 10 fold | 265 pM | B2
9460 pM | 12 fold | 8 fold | 260 pM | B3
8750 pM | 14 fold | 9 fold | 269 pM | B4
> 90 pM | 7 fold | 10 fold | 62 pM | B5
5160 pM | 13 fold | 8 fold | 264 pM | B6
> 270 pM | 8 fold | 14 fold | > 90 pM | B7
6070 pM | 20 fold | 9 fold | 157 pM | B8
9260 pM | 12 fold | 11 fold | 264 pM | B9
101 pM | 7 fold | 10 fold | > 200 pM | B10
7320 pM | 16 fold | 9 fold | 111 pM | B11
7130 pM | 12 fold | 10 fold | 177 pM | B12

Biological target: T2, cynoGITR on 293F‐cynoGITR cells
Assay: flow cytometry on cells; 293F‐hGITR or 293F‐cynoGITR cells incubated with antibodies at 4 °C for 1 h, fluorescent anti-rat/human secondary antibody; EC50 of MFI curve
Conditions: one partner purified

EC50 | Binder
11 pM | B1
304 pM | B2
287 pM | B3
277 pM | B4
198 pM | B5
260 pM | B6
226 pM | B7
418 pM | B8
313 pM | B9
404 pM | B10
190 pM | B11
220 pM | B12

The binders below were run against T4, human GITR on 293F‐hGITR cells in the same assay as above. Conditions: one partner purified.

EC50 | Binder
163 pM | B1
244 pM | B2
181 pM | B3
215 pM | B4
358 pM | B5
195 pM | B6
152 pM | B7
179 pM | B8
235 pM | B9
385 pM | B10
190 pM | B11
165 pM | B12
